According to patent US20240247072A1 (KEYMED BIOSCIENCES, published 2024):
Substitutions are numbered along the chain they refer to.

T1: human CD70, full length, on CHO cells (CHO-human CD70-B07) (human, UniProt P32970 1-193)
T1 construct: whole, on cells; Stably transfected CHO cells; also called CHO-CD70
T1 sequence (looked up): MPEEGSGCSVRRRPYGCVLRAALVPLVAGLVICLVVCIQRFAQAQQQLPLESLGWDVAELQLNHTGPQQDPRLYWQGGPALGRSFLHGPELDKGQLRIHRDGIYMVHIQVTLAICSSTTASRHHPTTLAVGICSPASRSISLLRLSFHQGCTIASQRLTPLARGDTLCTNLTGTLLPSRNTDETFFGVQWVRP

T2: recombinant trimeric protein of human CD70 extracellular region (human CD70 mIgG Fc (knob) / mouse IgG Fc … (human, UniProt P01863 98-330 = IgG part))
T2 construct: The ELISA and Octet texts say only 'recombinant CD70 protein' / 'CM352 antigen'; also called recombinant human CD70 protein; recombinant CD70 protein
T2 chain 1: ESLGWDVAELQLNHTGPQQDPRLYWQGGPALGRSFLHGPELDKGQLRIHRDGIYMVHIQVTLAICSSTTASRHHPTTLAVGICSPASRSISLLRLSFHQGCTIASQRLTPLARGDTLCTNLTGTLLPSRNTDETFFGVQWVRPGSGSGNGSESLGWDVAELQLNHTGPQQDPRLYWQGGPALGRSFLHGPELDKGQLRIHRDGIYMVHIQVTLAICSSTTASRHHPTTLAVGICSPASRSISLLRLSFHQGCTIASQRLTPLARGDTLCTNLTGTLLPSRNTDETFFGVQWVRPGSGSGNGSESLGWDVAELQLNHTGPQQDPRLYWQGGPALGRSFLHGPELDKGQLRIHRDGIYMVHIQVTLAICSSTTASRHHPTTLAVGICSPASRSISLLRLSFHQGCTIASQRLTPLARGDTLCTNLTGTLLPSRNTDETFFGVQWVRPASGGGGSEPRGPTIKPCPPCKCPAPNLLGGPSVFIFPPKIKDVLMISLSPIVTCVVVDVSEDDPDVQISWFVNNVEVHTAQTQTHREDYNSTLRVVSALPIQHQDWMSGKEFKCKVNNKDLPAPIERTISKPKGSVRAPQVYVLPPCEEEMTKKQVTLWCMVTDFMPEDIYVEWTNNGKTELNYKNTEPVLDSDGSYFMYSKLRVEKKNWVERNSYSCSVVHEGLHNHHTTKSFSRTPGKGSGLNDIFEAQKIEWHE
T2 chain 2: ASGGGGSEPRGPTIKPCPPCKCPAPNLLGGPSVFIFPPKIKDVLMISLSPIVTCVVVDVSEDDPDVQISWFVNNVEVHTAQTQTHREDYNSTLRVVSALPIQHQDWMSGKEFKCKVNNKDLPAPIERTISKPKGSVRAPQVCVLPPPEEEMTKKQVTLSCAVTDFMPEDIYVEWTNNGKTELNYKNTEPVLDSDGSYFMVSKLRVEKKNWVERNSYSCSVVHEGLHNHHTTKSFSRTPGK

B1: 27A3 chimeric antibody (antibody, V domains shown)
VH: EVQLQESGPGLVQPSQSLSITCTVSGFSLTTYAVHWVRQSPGKGLEWLGVIWSTGITDYNADFISRLSISKDNSKSQVFFKMDSLQSDDTAIYFCARNHYYGNLNAMDYWGQGTSVTVSS
VL: DIVLTQSPASLAVSLGQRATISCRASKSVSTSGYSFMHWYQQKPGQPPKLLIYLASNLESGVPARFSGSGSGTDFTLNIHPVEEEDAATYYCQHSRELPYTFGGGTKLEIK
B2: 2B12 chimeric antibody (antibody, V domains shown)
VH: B1 VH with E1Q, E6Q, D62A, D83N, T90I, F94Y, H99P
VL: B1 VL with S30D, Y100L, G104A, I110L
B3: 14C12 chimeric antibody (antibody, V domains shown)
VH: EVQLQQSGPELVKPGASVKMSCKASGYTFTDYVIHWVKQKPGQGLEWIGYLHPYNDDTKYNEKFKGKATLTSDKSSSTAYMELSSLTSEDSAVYYCARRGYYDYAWFADWGQGTLVTVSA
VL: B1 VL with T31A, S35T, F36W, M37I, G45R, P47A, Y100P
B4: 32D1 chimeric antibody (antibody, V domains shown)
VH: B3 VH with V18L, S84N
VL: B1 VL with R24K, T31A, S35T, F36W, P47A, Y100P
B5: 4H6-A6 hybridoma antibody (antibody, V domains shown)
VH: QVQLKQSGPGLVQPSQKLSITCTVSGFSLTTYGVHWIRQSPVKGLEWLGVIWTTGVVDYNAAFISRLNITKDNSKSQIFFKMNSLQTNDTAMYYCARNSYYGNLYVMDYWGQGTSVTVSS
VL: DIVLTQSPASLPIFLGQRATISCRASRSVSASGYTFMHWYQQKPGQPPKLLIYLVSNLESGVPARFSGSGSGTDFTLNIHPVEEEDAATYYCQHSREFPLTFGAGTKLELK
notes: Mouse antibody in hybridoma culture supernatant
B6: 36E7-D6 hybridoma antibody (antibody, V domains shown)
VH: QVQLKQSGPGLVQPSQSLSITCTVSDFSLTIFGVHWVRQSPGKGLEWLGVIWRDGSTDYNAALMSRLNITKDNSKSQVFFKMNSLQTDDTAIYYCAKNRRYDYAWFPYWGQGTLVSVSA
VL: B1 VL with T31A, M37L, A55T, E97D, L98F, Y100P, G104A, I110L
notes: as for B5
B7: 17A9-G5 hybridoma antibody (antibody, V domains shown)
VH: QVQLKQSGPGLVQPSQSLSITCTVSGFSLTTYGVHWVRQSPGKGLEWLGVIWSAGITDYNAPFISRLSITKDNSKSQVFFKMNSLQADDTAIYYCARNDYYGNLYAMDYWGQGTSVTVSS
VL: B5 VL with P12A, I13V, F14S, S26N, R27K, E59A, E84G
notes: as for B5
B8: 1H21-D5 hybridoma antibody (antibody, V domains shown)
VH: QVQLKQSGPGLVQPSQSLSITCTVSGFSLTSYGIHWVRQSPGKGLEWLGVIWSGGSTDFNAAFISRLSISKDNSKSQVFFKVISLQANDTAIYYCGRNSYYGNLYAMDYWGQGTSVTVSS
VL: B1 VL with A9T, T31A, Y100L, G104A, I110L
notes: as for B5
B9: 10C19-D11 hybridoma antibody (antibody, V domains shown)
VH: QVQLQQSGPGLVQPSQSLSITCTVSGFSLTTYAVHWFRQSPGQGLEWLGVIWSTGITDFNAAFISRLNINKDSSKSQIFFKMISLQPNDTAIYYCGRNSYYGNLYAMDYWGQGTSVTVSS
VL: B1 VL with A9T, T31A, S35N, G72E, E85G, Y100L, G104A, I110L
notes: as for B5
B10: 16J15-H3 hybridoma antibody (antibody, V domains shown)
VH: B7 VH with G26N, T30S, S53G, A54G, I56Y, P62A, S68T, T70S, D99N
VL: B5 VL with I13V, F14S, S26N, R27K, T35S, V55A, E59D, A87T
notes: as for B5
B11: 42H19-G4 hybridoma antibody (antibody, V domains shown)
VH: B6 VH with L11P, V34I, A61V
VL: B1 VL with T31A, M37L, A55T, E97D, L98F, Y100P, G104A, I110L
notes: as for B5

molecular target: T1, human CD70, full length, on CHO cells …; experiment: flow cytometry, chimeric IgG on CHO-human CD70 cells
Description: Different cells in logarithmic growth phase were taken, blocked with 3% BSA for 30 minutes, and plated to a 96-well U-plate at 5×10⁴ cells/100 μL. The centrifuge was performed at 1100 rpm for 3 minutes. The supernatant was discarded and the cells were gently tapped to be loosening. 50 μL of gradient diluted antibody was added (antibody concentration: from 30 μg/mL, 3-fold dilution for 5 gradients) per well, and incubated at 4° C. for 1 hour. After incubation, 180 μL of 0.5% BSA was added to each well for washing 3 times. 30 μL/well of secondary antibody AlexaFluro647 anti-human IgG (Jackson Immuno Research, Cat. No: 109-606-170) was added and incubated at 4° C. for 45 minutes. At the end of the incubation, each well was washed 3 times with 180 μL of 0.5% BSA and finally resuspended in 50 μL of PBS for iQue (Intellicyt, USA) assay.

Binder	EC50
B1	4.07 nM
B2	17.7 nM
B3	15 nM
B4	12.1 nM

Molecular target: T2, recombinant trimeric protein of human …
Experiment: ELISA binding, hybridoma supernatant, human CD70

Binder	binding result
B5	binds
B6	binds
B7	binds
B8	binds
B9	binds
B10	binds
B11	binds

Molecular target: T2, recombinant trimeric protein of human …
Experiment: competition ELISA, chimeric IgG titrated, CD27 coated, biotin-CD70, human pair
Description: The recombinant CD27 protein was coated at 1 μg/mL in a 96-well microtiter plate and incubated overnight at 4° C. The next day, the plate was washed 3 times with PBS, added with 200 μL of 2% defatted dry milk/PBS, blocked at room temperature for 2 hours, and washed once with PBS. The purified chimeric antibody was divided to 12 concentration gradients starting at 100 nM and diluted in a 1:3 gradient. […] of the antibody was added per well and incubated at room temperature for 30 minutes. […] The plate was washed 3 times with PBST and PBS and dried by spinning. A secondary antibody Streptavidin-coupled horseradish peroxidase SA-HRP (BD bioscience, cat. No: 6222697) was diluted with 0.5% BSA in a ratio of 1:8000. 100 μL of the diluent was added into each well and incubated at room temperature for 30 minutes. The plate was washed 3 times with PBST and PBS and dried by spinning. 100 μl of color development solution (TMB solution, Sigma, Cat. No: T2885) was added into each well and protected from light at 37° C. for reaction. After the substrate developed moderately, 50 μl of H₂SO₄ was added into each well to terminate the reaction. The OD450 nm was determined by using an enzyme-linked detector within 30 minutes, and the data was collected. The results were calculated by using Graph Pad Prism 5 software.

Binder	IC50
B1	0.08 nM
B2	0.11 nM
B3	0.1 nM
B4	0.1 nM

molecular target: T1, human CD70, full length, on CHO cells …; experiment: flow cytometry, hybridoma supernatant, cell surface human CD70

Binder	binding result
B5	binds
B6	binds
B7	binds
B8	binds
B9	binds
B10	binds
B11	binds
